Test results published in the supplement of paper PMC9732359.
± gives the uncertainty stated by the source.

Experiment: protein stability index of a GFP-peptide fusion (yeast GPS) (PSI 1-4); higher = more stable; sorted into four equal gates, so the index is relative within each strain
Outline: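 Peptides tiling yeast proteins in 17-residue segments were fused downstream of GFP, with Cherry expressed from the same plasmid. As a pooled library in yeast, mid-log cultures grown in leucine-free medium were sorted into four equal gates by GFP/Cherry fluorescence ratio. Gate plasmids were PCR-amplified and Illumina-sequenced, and barcodes linked reads to strains. Each peptide received a protein stability index equal to the sum of each gate's read frequency times its gate number.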

Sequence	protein stability index (doa10∆)	protein stability index (pdr5∆)	protein stability index (san1∆)	protein stability index (ubr1∆)
IPHFIDNNSSLNVSNTK [PRP8]	2.36 ± 0.08	2.42 ± 0.069	2.66 ± 0.053	2.51 ± 0.06
VRELGILCIFEGEKCHP [SEC65]	2.01 ± 0.052	2.43 ± 0.064	2.67 ± 0.051	2.45 ± 0.042
DIDDELNELETLIKKKQ [SMC2]	3.31 ± 0.16	3.11 ± 0.1	2.99 ± 0.078	3.24 ± 0.078
IDLCHDFPHLTPKLQTQ [YCS4]	2.6 ± 0.042	2.65 ± 0.038	2.63 ± 0.042	2.49 ± 0.035
WLAAATATGIKVFSLDP [ASC1]	2.58 ± 0.049	2.69 ± 0.045	2.81 ± 0.036	2.43 ± 0.029
TISSKPDILATDLIREK [YCS4]	–	2.54 ± 0.25	3.4 ± 0.26	3.09 ± 0.066
KPQEIKDILVKTGITKK [PRE9]	3.39 ± 0.089	3.29 ± 0.086	2.56 ± 0.22	3.15 ± 0.14
EINSEMCHIVRKFHELN [GRR1]	2.4 ± 0.057	2.81 ± 0.063	2.85 ± 0.064	2.44 ± 0.05
YNILGNLGIPKIAYRGV [SSN2]	2.55 ± 0.12	2.48 ± 0.12	1.55 ± 0.25	1.89 ± 0.1
QRTAQDRVQQDSEDEDS [YML031W/NDC1]	2.78 ± 0.089	2.56 ± 0.078	3.24 ± 0.081	2.91 ± 0.052
TNKGPLAQIWLASNMSN [MCD1]	2.33 ± 0.096	1.26 ± 0.054	1.26 ± 0.2	1.17 ± 0.056
HQSELIIKQTVHPIPDV [YMR129W/POM152]	2.74 ± 0.066	2.86 ± 0.055	2.55 ± 0.071	2.27 ± 0.061
PVDVDFNLDLDDIVSHQ [REC8]	–	3.4 ± 0.12	–	–
DYMYENGKLTSANERLF [YML031W/NDC1]	3.37 ± 0.17	3.28 ± 0.11	3.1 ± 0.11	3.23 ± 0.095
SNGIFYGPSFTKRESLN [SIR2]	2.85 ± 0.065	2.83 ± 0.045	2.65 ± 0.056	3.07 ± 0.039
DLEEAYATQVKTDNTVD [RPT3]	2.19 ± 0.18	2.58 ± 0.091	2.47 ± 0.14	2.79 ± 0.1
IDAALDKQYRTAVATLL [SMC3]	1.87 ± 0.093	2.17 ± 0.079	2.65 ± 0.12	2.82 ± 0.081
NIKLLNNRMGSYDCTGV [POP1]	2.85 ± 0.078	2.8 ± 0.059	2.83 ± 0.071	3 ± 0.042
PHGISVFLSNLVETCLN [BRR2]	1.39 ± 0.043	1.57 ± 0.035	1.48 ± 0.07	1.61 ± 0.03
TLQLGQEFQLKQINHQG [RPB4]	3.22 ± 0.26	3.28 ± 0.15	–	3.38 ± 0.24
TLIVVPFNQGSKQDVEA [FAS2]	2.87 ± 0.12	3.2 ± 0.12	3.13 ± 0.09	3.3 ± 0.12
NTLVRPNGTKKAYVRLT [RPL25]	–	–	3.03 ± 0.17	3.35 ± 0.15
IHGQDFQFFPKELDALQ [ISW2]	2.62 ± 0.048	2.75 ± 0.053	3.11 ± 0.037	2.78 ± 0.041
KIALGSPIVNVLEDVYR [RRI2]	2.17 ± 0.15	2.96 ± 0.15	2.31 ± 0.15	2.77 ± 0.098
LVCGNDSSYQDIFAVNL [RET1]	–	2.04 ± 0.25	2.24 ± 0.26	–
VAIQQGDIKPEFSPRLH [YML103C/NUP188]	2.45 ± 0.11	2.84 ± 0.096	3.07 ± 0.099	2.83 ± 0.068

Sequence	protein stability index (doa10∆)	protein stability index (pdr5∆)	protein stability index (san1∆)	protein stability index (ubr1∆)
DRTQDRADVEDESNDID [RPC37]	3.33 ± 0.087	3.52 ± 0.092	3.13 ± 0.11	3.4 ± 0.073
KITAKTQHEEEEEQDTG [IRR1]	2.69 ± 0.11	3.16 ± 0.13	2.82 ± 0.22	–
KLSCIQLNCIDTQFTKL [SRB8]	2.09 ± 0.046	1.92 ± 0.062	2.31 ± 0.091	2.61 ± 0.045
FQITLSSDDLQNCWSLI [SSN8]	2.11 ± 0.049	2.33 ± 0.063	2.22 ± 0.062	1.91 ± 0.045
NEGLVEYIDAEEEESIL [RPB2]	3.36 ± 0.081	3.46 ± 0.085	3.24 ± 0.078	3.37 ± 0.087
TTDMISVLYQLSTSAFM [YML031W/NDC1]	1.42 ± 0.095	1.64 ± 0.14	1.75 ± 0.24	1.14 ± 0.11
SRGLFEKKLMQDNKQLY [YDL116W/NUP84]	2.75 ± 0.067	3.06 ± 0.09	3.11 ± 0.078	2.93 ± 0.1
NNSGNDNNNTTNNDSNN [MED2]	3.13 ± 0.035	3.27 ± 0.033	3.133 ± 0.023	3.092 ± 0.03
VGCIFAELIGLQPIFKG [SSN3]	3.02 ± 0.085	2.42 ± 0.097	3.06 ± 0.04	2.5 ± 0.094
MAMNITPRLYTDRSRDF [RPB2]	2.93 ± 0.089	3 ± 0.087	2.96 ± 0.096	3.2 ± 0.087
GLCGAGTNNARLAQLLR [RPN1]	2.44 ± 0.068	1.79 ± 0.047	1.4 ± 0.13	1.16 ± 0.042
ARTATVSKKWAAAAVCE [RPL14A]	2.9 ± 0.089	3.21 ± 0.084	3.58 ± 0.11	2.71 ± 0.066
ADILCPLLESFITFSLD [IRR1]	2.63 ± 0.11	2.32 ± 0.081	2.17 ± 0.071	2.34 ± 0.064
TQKDSARVSPRNNVANK [YAR002W/NUP60]	3.22 ± 0.1	3.52 ± 0.12	3.23 ± 0.096	3.02 ± 0.072
SLTYKKISLRDICLKLN [RPN3]	2.38 ± 0.05	2.17 ± 0.047	1.44 ± 0.13	2.05 ± 0.04
VKDKQSKVSDDSESESG [RPN8]	1.97 ± 0.11	2.78 ± 0.13	–	2.9 ± 0.13
MSDSPLSKRQKRKSAQE [SMC4]	3.46 ± 0.17	3.16 ± 0.11	3.04 ± 0.12	3.46 ± 0.27
LSQSRIKIKSLEYEISK [YIL149C/MLP2]	2.08 ± 0.051	2.68 ± 0.055	2.37 ± 0.07	2.07 ± 0.041
KDGAKFIEVRNFLGDKK [RPL9A]	–	–	–	1.35 ± 0.27
AIPLQQVLSQSADPSLL [SWI1]	2.86 ± 0.22	2.5 ± 0.13	–	3.06 ± 0.17
SKNAERKWAARAASAKI [RPS8A]	3.135 ± 0.03	3.212 ± 0.028	3.173 ± 0.022	3.219 ± 0.026
PQMQCALQNLSQLPITP [YGL172W/NUP49]	2.06 ± 0.087	2.23 ± 0.098	2.12 ± 0.1	2.23 ± 0.068
DALVKRFKNSVKWYHFD [PRE7]	3.19 ± 0.13	3.37 ± 0.12	3.18 ± 0.072	3.08 ± 0.07
KKKTTLEDFENFKGLAK [YIL149C/MLP2]	2.82 ± 0.031	2.99 ± 0.03	2.957 ± 0.024	2.909 ± 0.026
AECISLICSIGLHSSEY [ECM29]	1.98 ± 0.053	2.38 ± 0.051	2.2 ± 0.092	2.62 ± 0.048
SLMDTLITPAVRNTAPN [YCG1]	1.6 ± 0.061	1.73 ± 0.082	1.26 ± 0.19	1.92 ± 0.058
